From the supplement of paper PMC9170038

System: MS2 coat protein
Assay: apparent KD of MS2 coat protein; higher = weaker reporter binding
Details: Eterna round: R107
Summary of the method: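 Apparent KD was obtained for each design as the median of normalised binding-curve fits over its clusters. RNA switches transcribed on-chip from Illumina sequencing clusters were titrated with SNAP-549-labelled MS2 coat protein (twofold steps, 0.7 or 1.5 nM to 3 µM) in 100 mM Tris-HCl pH 7.5, 80 mM KCl, 4 mM MgCl2, without or with constant ligand.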

[1] = input ligand: theophylline 20 uM
[2] = input ligand: theophylline 2 mM
[3] = input ligand: tryptophan 2.4 mM

| Sequence | apparent KD of MS2 coat protein (input ligand: arginine 13.2 mM) | apparent KD of MS2 coat protein (input ligand: none) | apparent KD of MS2 coat protein [1] | apparent KD of MS2 coat protein [2] | apparent KD of MS2 coat protein [3] |
| --- | --- | --- | --- | --- | --- |
| AAGAACCAGACGGCCGCCACUGGCCAGACAGGGUUCAUGGAAACAUGAGGAUCACCCAUGUCUUCCAGGACCGGGUCUGAAGAGG [Esbiisin] | 0.00861 µM | 0.00856 µM | 0.00986 µM | 0.00933 µM | 0.0113 µM |
| UGUAACAUGAGGAUCACCCAUGUAAGUGAUACCAGAUAAGUAGUAGUCCCUUGGCAGCAUAUUGGGCAAGUGUAUAGUCUAUACG [Same State - Theophylline A (Freestyle 6)] | 0.043 µM |  | 0.0653 µM |  | 0.0483 µM |
| ACAAGUCCUCAUGAUACCAGCGAUGAGACAAAGUCUCAACAUGAGGAUCACCCAUGUACUCGCCCUUGGCAGCAUACGGUUUUUG [Onedxequla] | 0.139 µM |  | 0.373 µM |  | 0.573 µM |
| CCUGAUGAGUCGGCCGCCACUCCAGUUGUAUUACAGGUUUUCGUAGACAUGAGGAUCACCCAUGUGAGGACCGGGACACACACAG [theeternabot_exclusion_MS2_Trp_B_21] | 0.0117 µM | 0.0113 µM | 0.0238 µM | 0.0174 µM | 0.0172 µM |
| AGAAAGAAACAAAACUCAAGGAGAACCGAAGGAGCGGCGAAAGAGCCAGGUAGGUCGCGGUCCUCAACAUGAGGAUCACCCAUGU | 0.0616 µM | 0.104 µM | 0.0835 µM | 0.186 µM | 0.0966 µM |
| AAAUGAGGAUCACCCAUGUAACAACGGGAAGGAGCGCCAAACAAGGCAGGUAGGUCGCCCACAUGAGGAUCACCCAUGUGUUGGG [Exclusion Arginine A GF 28] | 0.089 µM | 0.137 µM | 0.105 µM | 0.166 µM | 0.177 µM |
| CUUAUAUAUACGGCCGCCACUUACUCAUGAGGUAACAACAUGAGGAUCACCCAUGUUUGAGGAUCAAGGACCGGGUAUAUAUAAG [AstrosSSTry#18] | 0.0232 µM |  | 0.0359 µM | 0.0338 µM |  |
| GGAGCUACGUCGGCCGCCACUAGCGGAUAUUACGUGUACAUGAGGAUCACCCAUGUAAUACGGUUUAGGACCGGGACGUAGCUCC [Lizard] | 0.0156 µM |  | 0.0224 µM | 0.0206 µM |  |
| ACAUGAGGAUCACCCAUGUGGCGUCUUGAUACCAGACCCGCACUAGUCCCUUGGCAGCAACUACGUGAGGGUCGCCCAUGUGUAG [zxdullin] | 0.0324 µM |  | 0.0508 µM |  | 0.0344 µM |
| UGCGACAAGUGAAUACUUUGUUCUAGAGAUACCAGUUCCCGAGUGAACCCUUGGCAGCUCCCAACAUGAGGAUCACCCAUGUAUU [theeternabot_exclusion_MS2_Theo_A_24] | 0.0159 µM |  | 0.02 µM |  | 0.0135 µM |
| GUUAUAACAAAAGUUGUAACAGUGGGUGAACGAGGACCGGUACGGCCGCCACUCGGACAUGAGGAUCACCCAUGUCCAUGUGAAA [AstrosExyTryA#15] | 0.0141 µM |  | 0.0182 µM | 0.0216 µM |  |
| UUUGAUAGGACAGAUACCAGCGUGUUGUAGAACAUGAGGAUCACCCAUGUAGUGAUCAAGCGCCCUUGGCAGCUGGUUUGUUAGG [7.L] | 0.184 µM |  | 0.35 µM |  | 0.363 µM |
| AAGAUAAGUACUGAUACCAGAGACAUGAGGAUCACCCAUGUCAAAUAAUAAUACCUCAGACUCCCUUGGCAGCAGGAUAAAUGAG [Exclusion Theophylline B GF1] | 0.0109 µM | 0.0117 µM | 0.0199 µM | 0.0192 µM | 0.0121 µM |
